Substitutions are numbered along the chain they refer to. Where “and” joins values, the source holds several entries; their conditions need not be identical. Equal values may be shown once. Each block holds one molecule with its values, some of them ahead of it.
Legend:
[1] = tested on: Raji cells (STEAP2 negative); assay: FACS binding to STEAP2-negative Raji cells; details: human-Fc antibodies
Procedure: (§1) The ability of anti-STEAP2 antibodies to selectively bind to human six-transmembrane epithelial antigen of prostate 2 (STEAP2) endogenously expressing cell lines was determined via FACS analysis.
(§2) Briefly, 1×10^5 cells were incubated with 10 μg/ml of anti STEAP2 antibodies, or isotype control antibodies for 30 min on ice in antibody dilution buffer. Following one wash with antibody dilution buffer, cells were incubated with 10 μg/ml of PE conjugated anti-human or anti mouse Fc secondary antibodies for 30 min on ice. Following one additional wash, samples were incubated with Cytofix (1% formaldehyde) for 20 minutes. After one final wash, samples were filtered through a Pall 96 well filtration block, run on a Hypercyt® cytometer and analyzed in ForeCyt™ (IntelliCyt, Albuquerque, N. Mex.). Mean fluorescence intensities (MFI) were expressed as fold change above unstained levels (background). The average fold above background at antibody concentrations of 100-300 nM were determined. For cell binding EC50 determinations, mAb concentrations ranged from 300 nM to […] and EC50 values were determined from a four-parameter logistic equation over a 12-point response curve (GraphPad Prism).

[2] = tested on: FADU cells (STEAP2 negative); assay: FACS binding to STEAP2-negative FADU cells; details: human-Fc antibodies
Procedure: as §1, §2

[3] = tested on: human prostate cancer C4-2 cells (xenograft); assay: C4-2/human PBMC co-implant xenograft in NSG mice, immediate dosing; type: in vivo, mouse; details: C4-2/NSG
Text: To assess the in vivo efficacy of the anti-STEAP2/anti-CD3 bispecifics in human tumor xenograft studies, NOD scid gamma (NSG) mice (Jackson Laboratories, Bar Harbor, Me.) were co-implanted with human peripheral blood mononuclear cells (PBMCs; ReachBio LLC., Seattle, Wash.) along with human prostate cancer C4-2 cells (MD Anderson Cancer Center, Houston Tex.) which endogenously express STEAP2.
Briefly, 5.0×10^6 C4-2 cells were co-implanted subcutaneously (s.c.) with 1.25×10^6 human PBMCs in a 50:50 mix of matrigel matrix (BD Biosciences, San Jose, Calif.) into the right flank of male NSG mice. Mice were treated intraperitoneally (i.p.) on the day of implantation (immediate treatment model) with anti-STEAP2/anti-CD3 bispecifics BSSTEAP2/CD3-001, BSSTEAP2/CD3-002 or BSSTEAP2/CD3-003, or an isotype control, at a dose of 0.1 or 0.01 mg/kg (N=5 mice/group).
Tumor size was measured 2×/week using calipers and tumor volume calculated as Volume=(length×width^2)/2. Data is shown as tumor size (mm^3) at study endpoint, 46 d post-tumor implantation (Table 7).

[4] = tested on: cynomolgus T cells; assay: FACS binding titration of STEAP2xCD3 bispecifics on cynomolgus T cells; details: 66.6 nM to 0.001 nM, 30 minutes at 4° C.
Procedure: FACS Binding Titration on Jurkat Cells, PC3_STEAP2/1 Cells and cynomolgus T Cells: Flow cytometric analysis was utilized to determine binding of STEAP2×CD3 bispecific antibodies to Jurkat, PC3_STEAP2/1 chimeric and cynomolgus T cells, followed by detection with a phycoerythrin (PE)-labeled anti-human IgG antibody. Briefly, 2×10^5 cells/well were incubated for 30 minutes at 4° C. with a serial dilution of STEAP2×CD3 bispecific antibodies or control antibody (a human IgG1 antibody that binds a feline antigen with no cross-reactivity to STEAP2 or human or cynomolgus CD3) ranging from 66.6 nM to 0.001 nM. After incubation, the cells were washed twice with cold PBS containing 1% filtered FBS and a PE-conjugated anti-human secondary antibody was added to the cells and incubated for an additional 30 minutes. Wells containing no antibody or secondary antibody only were used as a control. After incubation, cells were washed, re-suspended in 200 μL cold PBS containing 1% filtered FBS and analyzed by flow cytometry on a BD FACS Canto II.

[5] = tested on: monkey PBMCs; assay: T cell proliferation assay, cynomolgus PBMC; type: cell-based; details: for Cynomolgus PBMC proliferation activity (in words): across donors tested
Procedure: Thawed human or freshly isolated monkey PBMCs (50,000 cells/well) were incubated with 3-fold (human, concentration range: 5E-10M to 2.82E-15M; cynomolgus, concentration range: 1E-09M to 4.57E-13M) serial dilutions of STEAP2×CD3 bispecifics or isotype control in complete medium (RPMI supplemented with 10% FBS, 100 U/mL penicillin, 100 μg/mL streptomycin, 292 μg/mL L-glutamine) and a fixed concentration (human: 200 ng/mL, cyno: 500 ng/mL) of a commercial anti-CD28 antibody (Biolegend, Catalog #302914) in white flat bottom 96-well plates for 72 hours at 37° C. Isolated monkey PBMCs were from two donors (identified as mk8781M or mk9381M). Following incubation, CellTiter Glo® (Promega, Cat #7573) was added and luminescence, as readout for cell viability, was measured using a VICTOR X5 multi-label plate reader. Cell titer was calculated by dividing the luminescence of stimulated cells by the baseline luminescence of unstimulated cells.

[6] = tested on: C4-2 cells (high-STEAP2 expressing); assay: Internalization and total binding on C4-2 cells (imaging, qualitative score); type: cell-based, human; parameters: key: − (no internalization or binding); +(weak internalization or binding); ++(moderate internalization or binding); +++(robust internalization or binding); details: 10 μg/ml antibody
Procedure: Briefly, 20,000 C4-2 cells were seeded in PDL coated 96 well plates. The next day, cells were incubated with anti-human STEAP2 antibodies (10 μg/ml) for 30 min on ice followed by two PBS washes. Cells were then incubated with alexa488-conjugated anti-hFc Fab secondary antibody for 30 minutes on ice, followed by two additional PBS washes. Antibodies were allowed to internalize for 1 h at 37° C. in internalization buffer (PBS+2% FBS) or were maintained at 4° C. Cells were fixed in 4% formaldehyde, nuclei were stained with DRAQ5 (Cell signaling), and images were acquired on the ImageXpress micro XL (Molecular Devices).
A qualitative visual assessment of the total binding intensity and the intensity of antibodies that had internalized into vesicles was performed and scored according to the following criteria: − (no internalization or binding), +(weak internalization or binding), ++(moderate internalization or binding) and +++(robust internalization or binding).

B1: H1H7810N: human-Fc anti-STEAP2 antibody; variable regions presumably as H2M7810N (antibody, V domains shown)
VH: QVQLVESGGGVVQPGRSLRLSCAVSGFTSSTYGMNWVRQAPGKGLEWVAVISYDGSNKYYADSVKGRFTISRDNSKNTLYLQMNSLRPEDTAVYYCARGRYFDLWGRGTLVTVSS
VL: DIQMTQSPSTLSASVGDRVTITCRASQIISSWLAWYQQKPGKAPKLLIYKASSLASGVPSRFSGSGSGTEFTLTISSLQPDDFATYYCQQYKSYSYTFGQGTKLEIK
Raji Avg F.A.B (Fold Above Background) [1]: 2 fold

B2: H1H7811N: human-Fc anti-STEAP2 antibody; variable regions presumably as H2M7811N (antibody, V domains shown)
VH: B1 VH with Y53F, N84S
VL: B1 VL with I2T, K103N
Raji Avg F.A.B (Fold Above Background) [1]: 4 fold
FADU Avg F.A.B (Fold Above Background) [2]: 3 fold

EC50 [4]: 7.27 nM
B3: BSSTEAP2/CD3-001: STEAP2×CD3 bispecific: anti-STEAP2 HCVR H2M11162N (SEQ 250), anti-CD3 HCVR CD3-VH-G (SEQ 1730), common LCVR SEQ 258 (antibody, V domains shown)
VH 1: QVQLQQSGPGLVKPSQTLSLTCAISGDSVSSNRAAWNWIRQSPSRGLQWLGRTYYRSKWYNDYAVSLRSRITINPVTSKNQVALHMNSVTPEDTAVYYCARAGIVVVPGPETFYYYDHGLDVWGQGTTVTVSS
VH 2: EVQLVESGGGLVQPGRSLRLSCAASGFTFDDYSMHWVRQAPGKGLEWVSGISWNSGSKGYADSVKGRFTISRDNAKNSLYLQMNSLRAEDTALYYCAKYGSGYGKFYHYGLDVWGQGTTVTVSS
VL: DIQMTQSPSSLSASVGDRVTITCRASQSIRSYLNWYQQKPGKAPELLIHAASSLQSGVPSRFSGSGSGTDFTLTISSLQPEDFASYYCQQSYSAPPITFGQGTRLEIK
Tumor Size (mm^3) 46 d post-tumor implantation (mean ± SD) ([3]; 0.01 mg/kg i.p. on day of implantation): 23.0 ± 220 mm^3
Tumor Size (mm^3) 46 d post-tumor implantation (mean ± SD) ([3]; 0.1 mg/kg i.p. on day of implantation): 18.0 ± 14.0 mm^3
Tumor growth compared to isotype control at study endpoint (in words) ([3]; 0.1 or 0.01 mg/kg): significantly suppressed tumor growth
Cynomolgus PBMC proliferation activity (in words) [5]: induced robust cynomolgus PBMC proliferation in all donors tested
EC50 ([5]; donor mk9381M, anti-CD28 500 ng/mL, 72 hours, read-out: Cyno PBMC Proliferation [M] (donor)): 4.6e-12 M and 4.59e-12 M

Cynomolgus T cells EC50 [M] [4]: No Binding
B4: BSSTEAP2/CD3-005: STEAP2×CD3 bispecific: anti-STEAP2 H1H11162 (SEQ 250), anti-CD3 H1H7208P (SEQ 1490), common LCVR SEQ 258 (antibody, V domains shown)
VH 1: B3 VH 1
VH 2: QVQLVESGGGLVHPGRSLRLSCAASGFKFDDYTMHWVRQAPGKGLEWVSDISWNSGSKGYADSVKGRFTISRDNAKDSLYLQMDSLRAADTAFYYCAKDKSGYGHFYYYAMDVWGQGTTVTVSS
VL: B3 VL
Cynomolgus PBMC proliferation activity (in words) [5]: no activity

EC50 [4]: 17.3 nM
B5: BSSTEAP2/CD3-007: STEAP2×CD3 bispecific: anti-STEAP2 H1H11162 (SEQ 250), anti-CD3 H1H7195P (SEQ 1450), common LCVR SEQ 258 (antibody, V domains shown)
VH 1: B3 VH 1
VH 2: EVQLVESGGGLVQPGRSLRLSCAASGFTFADYTMHWVRQAPGKGLEWVSDISWNSGSIAYADSVKGRFTISRDNAKNSLYLQMNSLRTEDTAFYYCAKDSRGYGHYKYLGLDVWGQGTTVTVSS
VL: B3 VL
Cynomolgus PBMC proliferation activity (in words) [5]: donor dependent

B6: H1H11164N: human-Fc anti-STEAP2 antibody, HCVR/LCVR SEQ ID NOs 282/290 (antibody, V domains shown)
VH: B3 VH 1 with A23V, S31T, R33S, Q48E, L67V, M86L, F113Y, D117Y
VL: B3 VL with S28N, E45K, A50V, S85T, A94T, Q101H
modifications: human Fc
FADU Avg F.A.B (Fold Above Background) [2]: 3 fold
Internalization (37° C., 1 h) Qualitative Score [6]: +++
Total Binding (4° C.) Qualitative Score [6]: +++

Cynomolgus T cells EC50 [M] [4]: No Binding
B7: BSSTEAP2/CD3-009: STEAP2×CD3 bispecific: anti-STEAP2 H1H11164 (SEQ 282), anti-CD3 H1H7208P (SEQ 1490), common LCVR SEQ 290 (antibody, V domains shown)
VH 1: B3 VH 1 with A23V, S31T, R33S, Q48E, L67V, M86L, F113Y, D117Y
VH 2: B4 VH 2
VL: B3 VL with S28N, E45K, A50V, S85T, A94T, Q101H
Cynomolgus PBMC proliferation activity (in words) [5]: no activity
